Measured values as given in paper PMC6056499, “A systematic dissection of sequence elements determining β-Klotho and FGF interaction and signaling” (Scientific Reports, 2018).

Assays:
[1] = biological target: human β-Klotho extracellular domain (aa1–992) fused with a 6 × His tag at the C-terminus (UniProt Q86Z14); experiment: AlphaScreen; conditions: parent: est. 1.0, read off a plot
[2] = biological target: human β-Klotho extracellular domain (aa1–992) fused with a 6 × His tag at the C-terminus (UniProt Q86Z14); experiment: solid-phase binding assay; conditions: parent: est. 1.0; read off a plot
[3] = competition with FGF19 for β-Klotho
[4] = competition with FGF21 for β-Klotho

human β-Klotho extracellular domain (aa1–992) fused with a 6 × His tag at the C-terminus, sequence (Q86Z14 53-992): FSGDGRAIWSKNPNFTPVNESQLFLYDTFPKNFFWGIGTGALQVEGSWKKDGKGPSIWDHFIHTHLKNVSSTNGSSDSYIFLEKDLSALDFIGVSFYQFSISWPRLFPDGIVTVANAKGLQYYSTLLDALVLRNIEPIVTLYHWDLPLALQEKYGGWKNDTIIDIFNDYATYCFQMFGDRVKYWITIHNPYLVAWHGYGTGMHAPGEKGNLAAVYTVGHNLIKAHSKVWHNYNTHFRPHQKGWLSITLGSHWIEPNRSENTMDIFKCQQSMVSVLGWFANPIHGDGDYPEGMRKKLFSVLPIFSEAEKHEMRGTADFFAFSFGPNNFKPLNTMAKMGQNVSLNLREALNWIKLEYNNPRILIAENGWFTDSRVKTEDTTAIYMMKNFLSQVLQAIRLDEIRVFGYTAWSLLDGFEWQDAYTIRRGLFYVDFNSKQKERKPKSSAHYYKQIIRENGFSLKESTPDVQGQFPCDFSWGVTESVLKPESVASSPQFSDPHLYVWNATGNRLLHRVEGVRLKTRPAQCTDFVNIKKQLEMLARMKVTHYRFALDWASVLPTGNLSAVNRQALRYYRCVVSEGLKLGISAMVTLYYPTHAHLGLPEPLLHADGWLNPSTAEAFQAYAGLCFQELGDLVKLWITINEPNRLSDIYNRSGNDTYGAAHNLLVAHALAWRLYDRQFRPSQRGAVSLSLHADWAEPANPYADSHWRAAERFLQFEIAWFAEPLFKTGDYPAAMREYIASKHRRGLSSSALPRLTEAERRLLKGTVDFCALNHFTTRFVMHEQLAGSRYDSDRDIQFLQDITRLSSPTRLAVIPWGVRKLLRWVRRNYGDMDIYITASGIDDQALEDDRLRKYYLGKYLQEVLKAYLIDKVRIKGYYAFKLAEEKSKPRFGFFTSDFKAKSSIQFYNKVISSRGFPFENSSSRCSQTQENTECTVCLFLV
FGF19 C-terminal peptide, WT FGF19^185–216 (from UniProt O95750) 192L-A, sequence (O95750 185-216, change not shown): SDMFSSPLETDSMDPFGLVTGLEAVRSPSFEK
FGF19 C-terminal peptide, WT FGF19^185–216 (from UniProt O95750) 189S-A, sequence (O95750 185-216, change not shown): as above
FGF19 C-terminal peptide, WT FGF19^185–216 (from UniProt O95750) 190S-A, sequence (O95750 185-216, change not shown): as above
FGF19 C-terminal peptide, WT FGF19^185–216 (from UniProt O95750) 188F-A, sequence (O95750 185-216, change not shown): as above
FGF19 C-terminal peptide, WT FGF19^185–216 (from UniProt O95750) 186D-A, sequence (O95750 185-216, change not shown): as above
FGF19 C-terminal peptide, WT FGF19^185–216 (from UniProt O95750) 195D-A, sequence (O95750 185-216, change not shown): as above
FGF19 C-terminal peptide, WT FGF19^185–216 (from UniProt O95750) 193E-A, sequence (O95750 185-216, change not shown): as above
FGF19 C-terminal peptide, WT FGF19^185–216 (from UniProt O95750) 187M-A, sequence (O95750 185-216, change not shown): as above
FGF19 C-terminal peptide, WT FGF19^185–216 (from UniProt O95750) 191P-A, sequence (O95750 185-216, change not shown): as above
FGF19 C-terminal peptide, WT FGF19^185–216 (from UniProt O95750) 194T-A, sequence (O95750 185-216, change not shown): as above
FGF19 C-terminal peptide, WT FGF19^185–216 (from UniProt O95750) 185S-A, sequence (O95750 185-216, change not shown): as above
mature human FGF21 polypeptide fused with the human Fc fragment at the N-terminus (Fc-FGF21), wild type (from UniProt Q9NSA1) 188V-A, sequence (Q9NSA1 29-209, change not shown): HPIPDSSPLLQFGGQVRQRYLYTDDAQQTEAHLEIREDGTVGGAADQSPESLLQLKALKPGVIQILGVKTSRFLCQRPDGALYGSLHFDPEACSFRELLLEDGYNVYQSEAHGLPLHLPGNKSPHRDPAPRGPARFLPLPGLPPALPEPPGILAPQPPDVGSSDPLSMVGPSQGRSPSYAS
mature human FGF21 polypeptide fused with the human Fc fragment at the N-terminus (Fc-FGF21), wild type (from UniProt Q9NSA1) 195S-R, sequence (Q9NSA1 29-209, change not shown): as above
mature human FGF21 polypeptide fused with the human Fc fragment at the N-terminus (Fc-FGF21), wild type (from UniProt Q9NSA1) 199P-R, sequence (Q9NSA1 29-209, change not shown): as above
mature human FGF21 polypeptide fused with the human Fc fragment at the N-terminus (Fc-FGF21), wild type (from UniProt Q9NSA1) 202G-A, sequence (Q9NSA1 29-209, change not shown): as above
mature human FGF21 polypeptide fused with the human Fc fragment at the N-terminus (Fc-FGF21), wild type (from UniProt Q9NSA1) 201Q-A, sequence (Q9NSA1 29-209, change not shown): as above
mature human FGF21 polypeptide fused with the human Fc fragment at the N-terminus (Fc-FGF21), wild type (from UniProt Q9NSA1) 189G-A, sequence (Q9NSA1 29-209, change not shown): as above
mature human FGF21 polypeptide fused with the human Fc fragment at the N-terminus (Fc-FGF21), wild type (from UniProt Q9NSA1) 188V-R, sequence (Q9NSA1 29-209, change not shown): as above
mature human FGF21 polypeptide fused with the human Fc fragment at the N-terminus (Fc-FGF21), wild type (from UniProt Q9NSA1) 197V-A, sequence (Q9NSA1 29-209, change not shown): as above
mature human FGF21 polypeptide fused with the human Fc fragment at the N-terminus (Fc-FGF21), wild type (from UniProt Q9NSA1) 190S-A, sequence (Q9NSA1 29-209, change not shown): as above
mature human FGF21 polypeptide fused with the human Fc fragment at the N-terminus (Fc-FGF21), wild type (from UniProt Q9NSA1) 195S-A, sequence (Q9NSA1 29-209, change not shown): as above
mature human FGF21 polypeptide fused with the human Fc fragment at the N-terminus (Fc-FGF21), wild type (from UniProt Q9NSA1) 202G-R, sequence (Q9NSA1 29-209, change not shown): as above
mature human FGF21 polypeptide fused with the human Fc fragment at the N-terminus (Fc-FGF21), wild type (from UniProt Q9NSA1) 200S-A, sequence (Q9NSA1 29-209, change not shown): as above
mature human FGF21 polypeptide fused with the human Fc fragment at the N-terminus (Fc-FGF21), wild type (from UniProt Q9NSA1) 200S-R, sequence (Q9NSA1 29-209, change not shown): as above
mature human FGF21 polypeptide fused with the human Fc fragment at the N-terminus (Fc-FGF21), wild type (from UniProt Q9NSA1) 209S-A, sequence (Q9NSA1 29-209, change not shown): as above
mature human FGF21 polypeptide fused with the human Fc fragment at the N-terminus (Fc-FGF21), wild type (from UniProt Q9NSA1) 198G-A, sequence (Q9NSA1 29-209, change not shown): as above
mature human FGF21 polypeptide fused with the human Fc fragment at the N-terminus (Fc-FGF21), wild type (from UniProt Q9NSA1) 199P-A, sequence (Q9NSA1 29-209, change not shown): as above
mature human FGF21 polypeptide fused with the human Fc fragment at the N-terminus (Fc-FGF21), wild type (from UniProt Q9NSA1) 198G-R, sequence (Q9NSA1 29-209, change not shown): as above

Substance | ratio to parent [1, 3] | ratio to parent [1, 4] | ratio to parent [2]
FGF19 C-terminal peptide, WT FGF19^185–216 (from UniProt O95750) 185S-A | 1.4 | 0.8 | –
FGF19 C-terminal peptide, WT FGF19^185–216 (from UniProt O95750) 187M-A | 1.2 | 0.9 | –
FGF19 C-terminal peptide, WT FGF19^185–216 (from UniProt O95750) 191P-A | 0.8 | 0.5 | –
FGF19 C-terminal peptide, WT FGF19^185–216 (from UniProt O95750) 192L-A | 11 | 7.5 | –
FGF19 C-terminal peptide, WT FGF19^185–216 (from UniProt O95750) 193E-A | 0.3 | 0.3 | –
FGF19 C-terminal peptide, WT FGF19^185–216 (from UniProt O95750) 195D-A | 5.5 | 4.5 | –
mature human FGF21 polypeptide fused with the human Fc fragment at the N-terminus (Fc-FGF21), wild type (from UniProt Q9NSA1) 188V-A | – | – | 200
mature human FGF21 polypeptide fused with the human Fc fragment at the N-terminus (Fc-FGF21), wild type (from UniProt Q9NSA1) 188V-R | – | – | 950
mature human FGF21 polypeptide fused with the human Fc fragment at the N-terminus (Fc-FGF21), wild type (from UniProt Q9NSA1) 189G-A | – | – | 0.8
mature human FGF21 polypeptide fused with the human Fc fragment at the N-terminus (Fc-FGF21), wild type (from UniProt Q9NSA1) 189G-R | – | – | 1.2
mature human FGF21 polypeptide fused with the human Fc fragment at the N-terminus (Fc-FGF21), wild type (from UniProt Q9NSA1) 190S-A | – | – | 15
mature human FGF21 polypeptide fused with the human Fc fragment at the N-terminus (Fc-FGF21), wild type (from UniProt Q9NSA1) 190S-R | – | – | 6.5
mature human FGF21 polypeptide fused with the human Fc fragment at the N-terminus (Fc-FGF21), wild type (from UniProt Q9NSA1) 195S-A | – | – | 3
mature human FGF21 polypeptide fused with the human Fc fragment at the N-terminus (Fc-FGF21), wild type (from UniProt Q9NSA1) 195S-R | – | – | 0.5
mature human FGF21 polypeptide fused with the human Fc fragment at the N-terminus (Fc-FGF21), wild type (from UniProt Q9NSA1) 197V-A | – | – | 90
mature human FGF21 polypeptide fused with the human Fc fragment at the N-terminus (Fc-FGF21), wild type (from UniProt Q9NSA1) 198G-R | – | – | 0.5
mature human FGF21 polypeptide fused with the human Fc fragment at the N-terminus (Fc-FGF21), wild type (from UniProt Q9NSA1) 200S-A | – | – | 0.8
mature human FGF21 polypeptide fused with the human Fc fragment at the N-terminus (Fc-FGF21), wild type (from UniProt Q9NSA1) 201Q-A | – | – | 0.6
mature human FGF21 polypeptide fused with the human Fc fragment at the N-terminus (Fc-FGF21), wild type (from UniProt Q9NSA1) 201Q-R | – | – | 1
mature human FGF21 polypeptide fused with the human Fc fragment at the N-terminus (Fc-FGF21), wild type (from UniProt Q9NSA1) 202G-A | – | – | 1.8
mature human FGF21 polypeptide fused with the human Fc fragment at the N-terminus (Fc-FGF21), wild type (from UniProt Q9NSA1) 208A-R | – | – | 9
mature human FGF21 polypeptide fused with the human Fc fragment at the N-terminus (Fc-FGF21), wild type (from UniProt Q9NSA1) 209S-A | – | – | 0.5
mature human FGF21 polypeptide fused with the human Fc fragment at the N-terminus (Fc-FGF21), wild type (from UniProt Q9NSA1) 209S-R | – | – | 1.6

Next, values leading:

ratio to parent [1, 3] | ratio to parent [1, 4] | ratio to parent [2] | Substance
0.8 | 0.7 | – | FGF19 C-terminal peptide, WT FGF19^185–216 (from UniProt O95750) 186D-A
2.7 | 1.4 | – | FGF19 C-terminal peptide, WT FGF19^185–216 (from UniProt O95750) 188F-A
1.7 | 1.3 | – | FGF19 C-terminal peptide, WT FGF19^185–216 (from UniProt O95750) 189S-A
2.9 | 1.4 | – | FGF19 C-terminal peptide, WT FGF19^185–216 (from UniProt O95750) 190S-A
2.1 | 1.4 | – | FGF19 C-terminal peptide, WT FGF19^185–216 (from UniProt O95750) 194T-A
– | – | 0.5 | mature human FGF21 polypeptide fused with the human Fc fragment at the N-terminus (Fc-FGF21), wild type (from UniProt Q9NSA1) 198G-A
– | – | 1 | mature human FGF21 polypeptide fused with the human Fc fragment at the N-terminus (Fc-FGF21), wild type (from UniProt Q9NSA1) 199P-A
– | – | 1.2 | mature human FGF21 polypeptide fused with the human Fc fragment at the N-terminus (Fc-FGF21), wild type (from UniProt Q9NSA1) 199P-R
– | – | 2 | mature human FGF21 polypeptide fused with the human Fc fragment at the N-terminus (Fc-FGF21), wild type (from UniProt Q9NSA1) 200S-R
– | – | 4.8 | mature human FGF21 polypeptide fused with the human Fc fragment at the N-terminus (Fc-FGF21), wild type (from UniProt Q9NSA1) 202G-R
– | – | 2 | mature human FGF21 polypeptide fused with the human Fc fragment at the N-terminus (Fc-FGF21), wild type (from UniProt Q9NSA1) 203R-A
– | – | 220 | mature human FGF21 polypeptide fused with the human Fc fragment at the N-terminus (Fc-FGF21), wild type (from UniProt Q9NSA1) 205P-R
